The results in this text go back to patent US20200239573A1 (CRESCENDO BIOLOGICS, published 2020).

Sequences and labels used below:
B1: Humabody® 1.41 (VHH)
VHH: QVQLVESGGGLVKPGGSLRLSCAASGFTFSDNSMTWMRQAPGKGLEWVSYISSGGGVIFYADSVKGRFTISRDNAKNSLYLQMNSLRADDTAVYYCAREAPLRLGESPHDAFDIWGQGTMVTVSS
notes: human VH single domain antibody
B2: Humabody® 1.56 (VHH)
VHH: B1 VHH with G56A, I58K, W115L
notes: as for B1
B3: Humabody® 1.49 (VHH)
VHH: B1 VHH with N32S, T35S, S53T, I58K
notes: as for B1
B4: Humabody® 1.48 (VHH)
VHH: B1 VHH with N32S, I58K
notes: as for B1
B5: Humabody® 1.51 (VHH)
VHH: B1 VHH with N32S, G56A, I58K, A61T
notes: as for B1
B6: Humabody® 1.42 (VHH)
VHH: B1 VHH with I58K
notes: as for B1
B7: Humabody® 1.44 (VHH)
VHH: B1 VHH with G56A, I58K
notes: as for B1
B8: Humabody® 1.43 (VHH)
VHH: B1 VHH with N32S
notes: as for B1
B9: Humabody® 1.54 (VHH)
VHH: B1 VHH with N32D
notes: as for B1
B10: Humabody® 1.52 (VHH)
VHH: B1 VHH with I58K, F59Y
notes: as for B1
B11: Humabody® 1.55 (VHH)
VHH: B1 VHH with I58K, W115S
notes: as for B1
B12: Humabody® 1.50 (VHH)
VHH: B1 VHH with G56T, V57I, I58K
notes: as for B1
B13: 1.77-4GS-non-blocking VH (3) (bispecific antibody)
chain: EVQLVESGGGLVKPGGSLRLSCAASGFTFSDSSMTWMRQAPGKGLEWVSYISSGGGVKFYTDSVKGRFTISRDNAKNSLYLQMNSLRAEDTAVYYCAREAPLRLGESPHDAFDISGQGTMVTVSSGGGGSGGGGSGGGGSGGGGSEVQLVESGGGLVQPGRSLRLSCAASGFTFDDYAMHWVRQAPGKDLEWVSGISWNGGSMGYAASVKGRFTISRDNAKNSLYLQMNSLRAEDTALYYCVREKGPGLTGSTADYYGLDVWGQGTMVTVSS
B14: Humabody® 1.84 (VHH)
VHH: B1 VHH with Q1E, N32E, I58K, A61T, D89E, W115S
notes: as for B1
B15: Humabody® 1.89 (VHH)
VHH: B1 VHH with Q1E, N32Y, I58K, D89E, W115S
notes: as for B1
B16: Humabody® 1.105 (VHH)
VHH: B1 VHH with Q1E, N32E, M34L, I58K, A61T, D89E, W115S
notes: as for B1
B17: Humabody® 1.104 (VHH)
VHH: B1 VHH with Q1E, N32E, M34F, I58K, A61T, D89E, W115S
notes: as for B1
B18: Humabody® 1.94 (VHH)
VHH: B1 VHH with Q1E, N32W, I58K, D89E, W115S
notes: as for B1
B19: Humabody® 1.46 (VHH)
VHH: B1 VHH with N32S, T35S
notes: as for B1
B20: Humabody® 1.47 (VHH)
VHH: B1 VHH with T35S
notes: as for B1
B21: Humabody® 1.53 (VHH)
VHH: B1 VHH with G56S, I58K
notes: as for B1
B22: Humabody® 1.101 (VHH)
VHH: B1 VHH with Q1E, N32F, I58K, D89E, W115S
notes: as for B1
B23: Humabody® 1.59 (VHH)
VHH: B1 VHH with T35S, G56S, I58K
notes: as for B1
B24: Humabody® 1.45 (VHH)
VHH: B1 VHH with N32Y, T35S
notes: as for B1
B25: Humabody® 1.58 (VHH)
VHH: B1 VHH with S33T, S53T, I58K
notes: as for B1
B26: Humabody® 1.70 (VHH)
VHH: B1 VHH with S30G, N32S, G56A, I58K, A61T, W115S
B27: Humabody® 1.71 (VHH)
VHH: B1 VHH with S30G, D31G, N32S, I58K, A61T, W115S
B28: Humabody® 1.69 (VHH)
VHH: B1 VHH with T35S, W115S
B29: Humabody® 1.72 (VHH)
VHH: B1 VHH with N32S, T35S, W115S
B30: Humabody® 1.67 (VHH)
VHH: B1 VHH with D31G, N32S, W115S

Positions count from the first letter of the chain named. Several values for one entry are separate records, joined by “and”; a condition that tells them apart may be missing. Equal values may be shown once.

T2 sequence (Q15116 25-170 limits assumed): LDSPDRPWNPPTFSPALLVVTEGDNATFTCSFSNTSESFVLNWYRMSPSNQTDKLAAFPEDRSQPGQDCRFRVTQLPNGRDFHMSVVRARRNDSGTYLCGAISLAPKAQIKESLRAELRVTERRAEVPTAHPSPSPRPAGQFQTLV
T1 sequence (Q15116 25-167 limits assumed, change not shown): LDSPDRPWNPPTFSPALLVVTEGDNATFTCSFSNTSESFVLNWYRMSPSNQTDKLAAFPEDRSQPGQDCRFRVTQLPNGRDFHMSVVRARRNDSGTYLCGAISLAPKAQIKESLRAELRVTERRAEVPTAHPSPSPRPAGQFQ

The first assay concerns the target T1, recombinant human PD-1 Fc chimera (human, UniProt Q15116 25-167).
T1 construct: Bought protein; also called human PD-1-huFc; huPD-1-Fc; not shown: human Fc
Kind of assay: SPR Biacore T200, PD-1-huFc amine-coupled, single cycle kinetics. As to the method: Binding kinetics of certain VH single domain antibodies binding to human PD-1-huFc were measured by surface plasmon resonance (SPR) technology using Biacore T200 instrument (GE Healthcare). Recombinant human PD-1-huFc was immobilized by standard amine coupling to CM5 sensorschip (GE Healthcare) using in range of 0.1-0.01 mg/ml solution of antigen in 10 mM sodium acetate at pH 5.5. For the reference flow cell, a blank immobilisation was carried out. Single cycle kinetics assays were used to study the interaction, a five point, three-fold dilution series of each Humabody® was made with a top concentration of 30 nM. The binding kinetics were followed by flowing the Humabody® over the chip surface in HBS EP+ buffer at a flow rate of 30 μl/min. The contact time for each of the association steps was 180 seconds and the dissociation step was varied between 1200-3600 seconds. The data was fitted to a 1:1 binding model after double reference subtraction using the Biacore T200 Evaluation software.
A general note: SPR reads the build-up and loss of mass on a sensor chip optically.
Broadly, the Kd is a measure of binding affinity in units of concentration. The koff is the rate constant with which the complex falls apart. As to B1, the Kd worked out at 0.0552 nM and the koff is 2.96e-05 s⁻¹.
By kon is commonly meant the second-order rate constant of association. B2: the Kd was 0.0355 nM, the dissociation rate constant (koff) came out at 1.53e-05 s⁻¹ and the association rate constant (kon) came to 432000 M⁻¹ s⁻¹.
In the case of B3, the Kd came to 0.11 nM, the koff turned out to be 2.89e-05 s⁻¹ and the on-rate (kon) turned out to be 263000 M⁻¹ s⁻¹.
The corresponding values for B4 are 0.106 nM, 5.24e-05 s⁻¹ and 496000 M⁻¹ s⁻¹.
With B5, the Kd stood at 0.317 nM, the koff was determined as 5.98e-05 s⁻¹ and the on-rate constant (kon) came out at 189000 M⁻¹ s⁻¹.
Turning to B6, the Kd amounted to 0.0505 nM, the koff is 2.69e-05 s⁻¹ and the on-rate constant (kon) stood at 532000 M⁻¹ s⁻¹.
As for B7, the dissociation constant Kd was 0.2 nM and 0.17 nM; the koff was 4.18e-05 s⁻¹ and 4e-05 s⁻¹; the kon is 209000 M⁻¹ s⁻¹ and 235000 M⁻¹ s⁻¹.
B8: the Kd came to 0.0681 nM, the koff turned out to be 2.79e-05 s⁻¹ and the kon is 410000 M⁻¹ s⁻¹.
The corresponding values for B9 are 0.0856 nM, 4.53e-05 s⁻¹ and 530000 M⁻¹ s⁻¹.
For the molecule B10, the Kd is 0.299 nM and 0.256 nM; the dissociation rate constant (koff) was 6.14e-05 s⁻¹ and 7.61e-05 s⁻¹; the kon is 205000 M⁻¹ s⁻¹ and 297000 M⁻¹ s⁻¹.
As for B11, the Kd was found to be 0.0364 nM, the dissociation rate constant (koff) is 1.95e-05 s⁻¹ and the on-rate constant (kon) was found to be 535000 M⁻¹ s⁻¹.
The corresponding values for B12 are 0.0581 nM, 2.34e-05 s⁻¹ and 402000 M⁻¹ s⁻¹.

Another assay concerns the target T2, Strep tagged recombinant human PD-1 (human, UniProt Q15116 25-170, limits assumed).
T2 construct: the whole entry is named; also called strep tagged human PD-1; not shown: Strep tag
Kind of assay: SPR Biacore T200, strep-tagged PD-1 amine-coupled, single cycle kinetics. How it is done:
Single cycle kinetics assays were used to study the interaction between human PD-1 with Humabody® on a Biacore T200 instrument (GE Healthcare). Strep tagged recombinant human PD-1 was amine coupled to one flow cell of a CM-5 chip to create a low density surface (14 RU) using standard Biacore reagents. For the reference flow cell, a blank immobilisation was carried out. A five-point, three-fold dilution series of each Humabody® was made with a top concentration of 25 nM. The binding kinetics were followed by flowing the Humabody® over the chip surface in HBS EP+ buffer at a flow rate of 30 μl/min. The contact time for each of the association steps was 180 seconds and the dissociation step was 3300 seconds. The data was fitted to a 1:1 binding model after double reference subtraction using the Biacore T200 Evaluation software.
Take B13: the Kd was 0.063 nM, the koff came to 3.5e-05 s⁻¹ and the on-rate (kon) was 550000 M⁻¹ s⁻¹.
With B14, the dissociation constant (Kd) is 0.091 nM, the dissociation rate constant (koff) amounted to 7.6e-05 s⁻¹ and the kon is 830000 M⁻¹ s⁻¹.
For B15, the Kd was determined as 0.0342 nM, the koff turned out to be 5.6e-05 s⁻¹ and the kon is 1.6e+06 M⁻¹ s⁻¹.
On to B16, for which the equilibrium dissociation constant (Kd) was determined as 0.091 nM, the off-rate constant (koff) amounted to 8.7e-05 s⁻¹ and the association rate constant (kon) came to 950000 M⁻¹ s⁻¹.
As to B17, the equilibrium dissociation constant (Kd) was determined as 0.08 nM, the koff was 6.3e-05 s⁻¹ and the kon is 780000 M⁻¹ s⁻¹.

The target in a further assay is T3, human PD-1 expressed on cells (CHO human PD-1 cells) (human, UniProt Q15116 21-288).
T3 construct: also called CHO TREX human PD-1 cell line; CHO PD-1
T3 sequence (Q15116 21-288): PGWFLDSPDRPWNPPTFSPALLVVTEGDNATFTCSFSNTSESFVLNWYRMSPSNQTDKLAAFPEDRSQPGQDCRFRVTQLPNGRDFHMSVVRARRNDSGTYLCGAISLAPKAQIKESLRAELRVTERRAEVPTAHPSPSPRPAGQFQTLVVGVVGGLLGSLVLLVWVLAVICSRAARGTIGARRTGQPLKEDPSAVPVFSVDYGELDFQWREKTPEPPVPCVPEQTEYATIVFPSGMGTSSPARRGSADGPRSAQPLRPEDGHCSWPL
Kind of assay: FMAT epitope competition on CHO human PD-1 cells; competitor 1 nM 1.1-Strep. How it is done:
For the epitope competition assay reagents were prepared in FMAT assay buffer. […] Plates were incubated for a minimum of 1.5 hours at room temperature then fluorescence measured in the FL2 (502 nm-537 nm) and FL5 (677-800 nm) channels on the Mirrorball plate reader (TTP) following excitation at 488 nm and 640 nm. Data was expressed as a % of the total binding control (i.e. % control) after subtraction of the background signal determined from the non-specific binding control wells.
In general, IC50 refers to the point on the concentration scale where inhibition reaches its midpoint. High values mean weaker potency, low ones greater potency. For the molecule B18, the IC50 was determined as 4.2 nM.
On to B19, for which the half-inhibitory concentration (IC50) stood at 1.8 nM. Compared with the last molecule, the IC50 is about 2.3-fold lower.
As for B15, the IC50 is 2.4 nM.
The same measure, in the same setting: the value for B5 was 4.7 nM; that for B20 was 4.4 nM; that for B6 was 3.5 nM.
In the case of B7, the concentration for half-maximal inhibition (IC50) is 1.9 nM.
B21 yielded a concentration for half-maximal inhibition (IC50) of 5.4 nM.
As to B8, the IC50 is 1.3 nM.
Consider B22, for which the half-maximal inhibitory concentration (IC50) turned out to be 3 nM. This IC50 is about 2.3-fold higher than that of the molecule before.
B23: the IC50 amounted to 7.8 nM.
Regarding B24, the IC50 came out at 2.5 nM.
Consider B25, for which the 50% inhibitory concentration (IC50) is 4.6 nM.

In a further assay the target is T3, human PD-1 expressed on cells (CHO …). Kind of assay: cell-based or functional assay.
As to B26, the “Reporter Assay EC50” value worked out at 29 nM.
For B27, the “Reporter Assay EC50” value amounted to 7.43 nM.
On to B28, for which the “Reporter Assay EC50” value is 35 nM.
Consider B29, for which the “Reporter Assay EC50” value was determined as 26.1 nM.
As for B30, the “Reporter Assay EC50” value was 12 nM.
Turning to B4, the “Reporter Assay EC50” value was found to be 18 nM.
Same read-out and setting: the value for B19 was 45 nM; that for B15 was 19 nM.
Turning to B5, the “Reporter Assay EC50” value was 23 nM.
For B20, the “Reporter Assay EC50” value stood at 27 nM.
B6: the “Reporter Assay EC50” value was found to be 8.6 nM.
For the molecule B7, the “Reporter Assay EC50” value was determined as 41 nM.
For the molecule B21, the “Reporter Assay EC50” value stood at 14 nM.
On the same count and under the same terms, for B8 the value was 12 nM; for B23, 24 nM.
Turning to B24, the “Reporter Assay EC50” value worked out at 74 nM.
Still for that read-out and setting: the value for B25 was 7.1 nM.
